Experimental data as given in the Immune Epitope Database (IEDB).
Values belong to the sequence of their own block, whether it stands above or below them.

Tests used:
HLA-B*07:02 [1] = test: IEDB peptide-MHC binding, purified MHC/competitive/radioactivity; ≥ and ≤ were set here for values at or beyond the usual limits of such assays
HLA-B*54:01 [2] = test: as above
HLA-B*35:01 [3] = test: IEDB peptide-MHC binding, purified MHC/competitive/radioactivity; filed as Kd, often an IC50 or EC50 that approximates it; ≥ and ≤ were set here for values at or beyond the usual limits of such assays
HLA-B*51:01 [4] = test: as above
HLA-B*53:01 [5] = test: as above
HLA-B*35:01 [6] = test: IEDB peptide-MHC binding, purified MHC/competitive/radioactivity; ≥ and ≤ were set here for values at or beyond the usual limits of such assays
HLA-B*51:01 [7] = test: as above
HLA-B*07:02 [8] = test: IEDB peptide-MHC binding, purified MHC/competitive/radioactivity; filed as Kd, often an IC50 or EC50 that approximates it; ≥ and ≤ were set here for values at or beyond the usual limits of such assays
HLA-B*54:01 [9] = test: as above
HLA-B*53:01 [10] = test: IEDB peptide-MHC binding, purified MHC/competitive/radioactivity; ≥ and ≤ were set here for values at or beyond the usual limits of such assays
[11] = source organism: human papillomavirus 11
[12] = source organism: Human immunodeficiency virus 1
[13] = source organism: human papillomavirus 18
[14] = source organism: Human immunodeficiency virus type 1 (RF/HAT ISOLATE)
[15] = source organism: Hepatitis C virus (isolate Taiwan)
[16] = source organism: Candida albicans

Sequence: SPISNVANA
IC50 (HLA-B*07:02 [1]; [11]): 655 nM
IC50 (HLA-B*54:01 [2]; [11]): 56 nM
Kd (HLA-B*35:01 [3]; [11]): ≥ 25000 nM
Kd (HLA-B*51:01 [4]; [11]): 5500 nM
Kd (HLA-B*53:01 [5]; [11]): ≥ 25000 nM

Sequence: FAVRPQVPL
IC50 (HLA-B*35:01 [6]; [12]): 148 nM
IC50 (HLA-B*51:01 [7]; [12]): 591 nM
Kd (HLA-B*07:02 [8]; [12]): 1300 nM
Kd (HLA-B*53:01 [5]; [12]): 6170 nM
Kd (HLA-B*54:01 [9]; [12]): 4250 nM

IC50 (HLA-B*07:02 [1]; source organism: Homo sapiens): 240 nM
IC50 (HLA-B*51:01 [7]; source organism: Homo sapiens): 4.3 nM
IC50 (HLA-B*54:01 [2]; source organism: Homo sapiens): 20 nM
Sequence: LPQPPICTI

Sequence: QPFILYAHI
IC50 (HLA-B*51:01 [7]; [13]): 26 nM
Kd (HLA-B*07:02 [8]; [13]): ≥ 25000 nM
Kd (HLA-B*35:01 [3]; [13]): ≥ 25000 nM
Kd (HLA-B*53:01 [5]; [13]): 5470 nM
Kd (HLA-B*54:01 [9]; [13]): 2940 nM

IC50 (HLA-B*35:01 [6]; source organism: Homo sapiens): 400 nM
IC50 (HLA-B*51:01 [7]; source organism: Homo sapiens): 14 nM
IC50 (HLA-B*53:01 [10]; source organism: Homo sapiens): 620 nM
IC50 (HLA-B*54:01 [2]; source organism: Homo sapiens): 270 nM
Kd (HLA-B*07:02 [8]; source organism: Homo sapiens): 1120 nM
Sequence: LPFRNCPRF

Sequence: FPVRPQVPL
IC50 (HLA-B*51:01 [7]; [12]): 679 nM
IC50 (HLA-B*53:01 [10]; [12]): 192 nM

Sequence: QPKKVKRRL
Kd (HLA-B*07:02 [8]; [11]): 2900 nM
Kd (HLA-B*35:01 [3]; [11]): ≥ 25000 nM
Kd (HLA-B*51:01 [4]; [11]): 3240 nM
Kd (HLA-B*53:01 [5]; [11]): ≥ 25000 nM
Kd (HLA-B*54:01 [9]; [11]): ≥ 25000 nM

Sequence: FPISPIETV
IC50 (HLA-B*51:01 [7]; [14]): 147 nM
IC50 (HLA-B*53:01 [10]; [14]): 251 nM
IC50 (HLA-B*54:01 [2]; [14]): 9.8 nM
Kd (HLA-B*07:02 [8]; [14]): 3480 nM
Kd (HLA-B*35:01 [3]; [14]): 1050 nM

Sequence: FPVRPQVPT
IC50 (HLA-B*07:02 [1]; [12]): 380 nM
IC50 (HLA-B*35:01 [6]; [12]): 26 nM
IC50 (HLA-B*54:01 [2]; [12]): 1.8 nM
Kd (HLA-B*51:01 [4]; [12]): 1300 nM
Kd (HLA-B*53:01 [5]; [12]): 1300 nM

Sequence: YPCTVNFTI
IC50 (HLA-B*51:01 [7]; [15]): 12 nM
IC50 (HLA-B*53:01 [10]; [15]): 102 nM
Kd (HLA-B*07:02 [8]; [15]): 10800 nM

Sequence: FPYLVAYQA
IC50 (HLA-B*51:01 [7]; [15]): 57 nM
Kd (HLA-B*07:02 [8]; [15]): 18000 nM
Kd (HLA-B*53:01 [5]; [15]): 1710 nM

Kd (HLA-B*07:02 [8]; source organism: Homo sapiens): ≥ 25000 nM
Kd (HLA-B*35:01 [3]; source organism: Homo sapiens): ≥ 25000 nM
Kd (HLA-B*51:01 [4]; source organism: Homo sapiens): 5500 nM
Kd (HLA-B*53:01 [5]; source organism: Homo sapiens): ≥ 25000 nM
Kd (HLA-B*54:01 [9]; source organism: Homo sapiens): ≥ 5000 nM
Sequence: IPEPEGPDA

IC50 (HLA-B*07:02 [1]; source organism: Homo sapiens): 902 nM
IC50 (HLA-B*51:01 [7]; source organism: Homo sapiens): 28 nM
IC50 (HLA-B*54:01 [2]; source organism: Homo sapiens): 476 nM
Kd (HLA-B*35:01 [3]; source organism: Homo sapiens): ≥ 25000 nM
Kd (HLA-B*53:01 [5]; source organism: Homo sapiens): ≥ 25000 nM
Sequence: EPGPVTAQV

IC50 (HLA-B*07:02 [1]; source organism: Homo sapiens): 172 nM
IC50 (HLA-B*51:01 [7]; source organism: Homo sapiens): 367 nM
IC50 (HLA-B*54:01 [2]; source organism: Homo sapiens): 23 nM
Kd (HLA-B*35:01 [3]; source organism: Homo sapiens): ≥ 25000 nM
Kd (HLA-B*53:01 [5]; source organism: Homo sapiens): ≥ 25000 nM
Sequence: VPLAHSSSA

IC50 (HLA-B*51:01 [7]; source organism: Homo sapiens): 39 nM
IC50 (HLA-B*54:01 [2]; source organism: Homo sapiens): 333 nM
Kd (HLA-B*07:02 [8]; source organism: Homo sapiens): 1530 nM
Kd (HLA-B*35:01 [3]; source organism: Homo sapiens): 2120 nM
Kd (HLA-B*53:01 [5]; source organism: Homo sapiens): 15500 nM
Sequence: TPAEVSIVV

IC50 (HLA-B*35:01 [6]; source organism: Homo sapiens): 206 nM
IC50 (HLA-B*53:01 [10]; source organism: Homo sapiens): 404 nM
Kd (HLA-B*51:01 [4]; source organism: Homo sapiens): 1960 nM
Kd (HLA-B*54:01 [9]; source organism: Homo sapiens): ≥ 25000 nM
Sequence: HPEDTGQVF

IC50 (HLA-B*07:02 [1]; [16]): 51 nM
IC50 (HLA-B*51:01 [7]; [16]): 136 nM
IC50 (HLA-B*54:01 [2]; [16]): 17 nM
Kd (HLA-B*35:01 [3]; [16]): ≥ 25000 nM
Kd (HLA-B*53:01 [5]; [16]): 3510 nM
Sequence: FPRFKFVWV

Sequence: FPVRPQVPC
IC50 (HLA-B*07:02 [1]; [12]): 380 nM
IC50 (HLA-B*54:01 [2]; [12]): 65.8 nM
Kd (HLA-B*35:01 [3]; [12]): 1300 nM
Kd (HLA-B*51:01 [4]; [12]): 1300 nM
Kd (HLA-B*53:01 [5]; [12]): 1300 nM

Sequence: FPVRPQVPQ
IC50 (HLA-B*07:02 [1]; [12]): 380 nM
IC50 (HLA-B*35:01 [6]; [12]): 394 nM
IC50 (HLA-B*54:01 [2]; [12]): 79 nM
Kd (HLA-B*51:01 [4]; [12]): 1300 nM
Kd (HLA-B*53:01 [5]; [12]): 1300 nM
